From patent US20240117022A1 (GANYMED PHARMACEUTICALS, published 2024)
Blank lines part the entries; values can stand above or below the binder they belong to.

Assays:
[1] = target: T1, human CLD18A1 (human, UniProt P56856 1-261); assay: flow cytometry on HEK293-CLD18A1 cells
T1 construct: Expressed on transfected HEK293 or CHO cells; also called claudin 18 splice variant 1; NP_057453

[2] = target: T1, human CLD18A1; assay: summary of Example 10
[3] = target: T1, human CLD18A1; assay: overview table of murine antibodies
[4] = target: T2, murine CLD18A1 (mouse, UniProt P56857 1-264); assay: overview table of murine antibodies
T2 construct: Transiently expressed on HEK293 cells; also called mouse CLD18A1; NP_062789

[5] = target: T1, human CLD18A1; assay: overview table of chimeric antibodies
[6] = target: T2, murine CLD18A1; assay: summary of Example 10

- binding result [1]: no binding
B1: ch-43A11 (antibody, V domains shown)
VH: QVQLQQSGAELMKPGASVKISCKATGYTFSSYWIEWVKQRPGHGLEWIGEILPGSGSTNYNEKFKGKATFTADTSSNTAYMQLSSLTSEDSAVYYCARYDYPWFAYWGQGTLVTVSA
VL: QIVLTQSPAIMSASPGEKVTITCSASSSVSYMHWFQQKPGTSPKLWIYSTSNLASGVPARFSGSGSGTSYSLTISRMEAEDAATYYCQQRSSYPPTFGGGTKLEIKR
notes: Mouse/human chimeric, human gamma-1 and kappa constant regions; also called chimeric 43A11

- binding result [2]: no binding
B2: 43A11 (antibody, IgG2a, V domains shown)
VH: B1 VH
VL: QIVLTQSPAIMSASPGEKVTITCSASSSVSYMHWFQQKPGTSPKLWIYSTSNLASGVPARFSGSGSGTSYSLTISRMEAEDAATYYCQQRSSYPPTFGGGTKLEIK
notes: mouse monoclonal IgG2a, kappa; also called 182-D1106-062; DSM ACC2742

- binding result [3]: no binding
- binding result [4]: no binding
B3: 163E12 (antibody, IgG3, V domains shown)
VH: QIQLVQSGPELKKPGETVKISCKASGYTFTNYGMNWVKQAPGKGLKWMGWINTNTGEPTYAEEFKGRFAFSLETSASTAYLQINNLKNEDTATYFCARLGFGNAMDYWGQGTSVTVSS
VL: DIVMTQSPSSLTVTAGEKVTMSCKSSQSLLNSGNQKNYLTWYQQKPGQPPKLLIYWASTRESGVPDRFTGSGSGTDFTLTISSVQAEDLAVYYCQNDYSYPLTFGAGTKLELK
notes: mouse monoclonal IgG3, kappa; also called 182-D1106-294; DSM ACC2809

- binding result [5]: no binding
B4: ch-163E12 (antibody, V domains shown)
VH: B3 VH
VL: DIVMTQSPSSLTVTAGEKVTMSCKSSQSLLNSGNQKNYLTWYQQKPGQPPKLLIYWASTRESGVPDRFTGSGSGTDFTLTISSVQAEDLAVYYCQNDYSYPLTFGAGTKLELKR
notes: Mouse/human chimeric, human gamma-1 and kappa constant regions; also called chimeric 163E12

- binding result [1]: no binding
B5: ch-166E2 (antibody, V domains shown)
VH: QVQLQQSGPELVKPGASVKMSCKASGYTFTDYVISWVKQRTGQGLEWIGEIYPGSGSTYYNEKFKGKATLTADKSSNTAYMQLSSLTSEDSAVYFCARGVLLRAMDYWGQGTSVTVSS
VL: DIVMSQSPSSLAVSAGEKVTMSCKSSQSLLNSRTRKNYLAWYQQKPGQSPKLLIYWASTRESGVPDRFTGSGSGTDFTLTISSVQAEDLAVYYCKQSYNLYTFGGGTKLEIKR
notes: Mouse/human chimeric, human gamma-1 and kappa constant regions; also called chimeric 166E2

- binding result [2]: no binding
- binding result [6]: no binding
B6: 166E2 (antibody, IgG3, V domains shown)
VH: B5 VH
VL: DIVMSQSPSSLAVSAGEKVTMSCKSSQSLLNSRTRKNYLAWYQQKPGQSPKLLIYWASTRESGVPDRFTGSGSGTDFTLTISSVQAEDLAVYYCKQSYNLYTFGGGTKLEIK
notes: mouse monoclonal IgG3, kappa; also called 182-D1106-308

- binding result [3]: no binding
- binding result [4]: no binding
B7: 125E1 (antibody, IgG2a, V domains shown)
VH: QVQLQQSGAELARPGASVKLSCKASGYTFTDYYINWVKQRTGQGLEWIGEIYPGSGNTYYNEKFKGKATLTADKSSSTAYMQLSSLTSEDSAVYFCARSYGAFDYWGQGTTLTVSS
VL: DIVMTQSQKFMSTSVGDRVSITCKASQNVRTAVAWYQQKPGQSPKALIYLASNRHTGVPDRFTGSGSGTDFTLTISNVQSEDLADYFCLQHWNYPLTFGGGTKLEIK
notes: mouse monoclonal IgG2a, kappa; also called 182-D1106-279; DSM ACC2808

- binding result [5]: no binding
B8: ch-125E1 (antibody, V domains shown)
VH: B7 VH
VL: DIVMTQSQKFMSTSVGDRVSITCKASQNVRTAVAWYQQKPGQSPKALIYLASNRHTGVPDRFTGSGSGTDFTLTISNVQSEDLADYFCLQHWNYPLTFGGGTKLEIKR
notes: Mouse/human chimeric, human gamma-1 and kappa constant regions; also called chimeric 125E1
